Data taken from the supplement of paper PMC9112550, “Optimization of the antimicrobial peptide Bac7 by deep mutational scanning” (BMC Biology, 2022).

System: Escherichia coli TOP10
Assay: shrunken log2 fold change of peptide-encoding DNA abundance (4.5 h post-induction vs induction); higher = less antimicrobial activity (less host growth inhibition)
Details: time post-induction: 4.5 h; library: site-saturation at positions 5, 18, 19, 20
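Also: peptides expressed intracellularly from a pBAD plasmid library in pooled LB shake-flask culture, induced with 0.3% L-arabinose, DNA abundance read by NGS, three biological replicates, DESeq2 with apeglm shrinkage.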

Row | Sequence | shrunken log2 fold change
1 | RRIRVRPPRLPRPRPRPLPTPRP | 0.184
2 | RRIRVRPPRLPRPRPRPLRPPRP | 0.97
3 | RRIRVRPPRLPRPRPRPLSSPRP | 0.0511
4 | RRIRVRPPRLPRPRPRPLTGPRP | -0.396
5 | RRIRVRPPRLPRPRPRPLTNPRP | -0.447
6 | RRIRVRPPRLPRPRPRPLVEPRP | -0.125
7 | RRIRVRPPRLPRPRPRPLVMPRP | -0.902
8 | RRIRVRPPRLPRPRPRPLWAPRP | 0.081
9 | RRIRVRPPRLPRPRPRPLWHPRP | -0.0301
10 | RRIRVRPPRLPRPRPRPLWWPRP | 0.855
11 | RRIRVRPPRLPRPRPRPLYGPRP | -0.426
12 | RRIRVRPPRLPRPRPRPLYWPRP | -0.329
13 | RRIRVRPPRLPRPRPRPMADPRP | -0.0473
14 | RRIRVRPPRLPRPRPRPMAFPRP | -0.00965
15 | RRIRVRPPRLPRPRPRPMCKPRP | -0.508
16 | RRIRVRPPRLPRPRPRPMCQPRP | -0.0733
17 | RRIRVRPPRLPRPRPRPMDLPRP | 0.156
18 | RRIRVRPPRLPRPRPRPMEAPRP | 0.0665
19 | RRIRVRPPRLPRPRPRPMFCPRP | -0.0375
20 | RRIRVRPPRLPRPRPRPMFIPRP | -0.384
21 | RRIRVRPPRLPRPRPRPMFRPRP | -0.048
22 | RRIRVRPPRLPRPRPRPMGIPRP | 0.134
23 | RRIRVRPPRLPRPRPRPMGSPRP | -0.000992
24 | RRIRVRPPRLPRPRPRPMGTPRP | 0.113
25 | RRIRVRPPRLPRPRPRPMHNPRP | -0.268

Row | Sequence | shrunken log2 fold change
26 | RRIRVRPPRLPRPRPRPMIIPRP | -1.25
27 | RRIRVRPPRLPRPRPRPMMGPRP | 0.00748
28 | RRIRVRPPRLPRPRPRPMMNPRP | -0.28
29 | RRIRVRPPRLPRPRPRPMMRPRP | 0.837
30 | RRIRVRPPRLPRPRPRPMNAPRP | 0.154
31 | RRIRVRPPRLPRPRPRPMNRPRP | -0.182
32 | RRIRVRPPRLPRPRPRPMPSPRP | 0.333
33 | RRIRVRPPRLPRPRPRPMSFPRP | -0.157
34 | RRIRVRPPRLPRPRPRPMSIPRP | -0.306
35 | RRIRVRPPRLPRPRPRPMYDPRP | -0.0887
36 | RRIRVRPPRLPRPRPRPMYQPRP | -0.342
37 | RRIRVRPPRLPRPRPRPMYRPRP | 0.0262
38 | RRIRVRPPRLPRPRPRPNAQPRP | 0.24
39 | RRIRVRPPRLPRPRPRPNATPRP | 0.172
40 | RRIRVRPPRLPRPRPRPNCCPRP | -0.0903
41 | RRIRVRPPRLPRPRPRPNCQPRP | -0.1
42 | RRIRVRPPRLPRPRPRPNDDPRP | -0.299
43 | RRIRVRPPRLPRPRPRPNDIPRP | -0.235
44 | RRIRVRPPRLPRPRPRPNFVPRP | -0.491
45 | RRIRVRPPRLPRPRPRPNGNPRP | -0.323
46 | RRIRVRPPRLPRPRPRPNHFPRP | -0.346
47 | RRIRVRPPRLPRPRPRPNHHPRP | -0.373
48 | RRIRVRPPRLPRPRPRPNHNPRP | -0.638
49 | RRIRVRPPRLPRPRPRPNIKPRP | -0.497
50 | RRIRVRPPRLPRPRPRPNINPRP | -0.608

Row | Sequence | shrunken log2 fold change
51 | RRIRVRPPRLPRPRPRPNKAPRP | 0.13
52 | RRIRVRPPRLPRPRPRPNKHPRP | -0.189
53 | RRIRVRPPRLPRPRPRPNKKPRP | -0.0801
54 | RRIRVRPPRLPRPRPRPNLKPRP | -0.0252
55 | RRIRVRPPRLPRPRPRPNLNPRP | -0.342
56 | RRIRVRPPRLPRPRPRPNPHPRP | -0.185
57 | RRIRVRPPRLPRPRPRPNPRPRP | 0.21
58 | RRIRVRPPRLPRPRPRPNRVPRP | 0.0523
59 | RRIRVRPPRLPRPRPRPNSNPRP | -0.74
60 | RRIRVRPPRLPRPRPRPNVGPRP | 0.00661
61 | RRIRVRPPRLPRPRPRPNVYPRP | -0.787
62 | RRIRVRPPRLPRPRPRPNWLPRP | -0.105
63 | RRIRVRPPRLPRPRPRPNYDPRP | 0.273
64 | RRIRVRPPRLPRPRPRPPACPRP | 0.692
65 | RRIRVRPPRLPRPRPRPPAGPRP | 0.522
66 | RRIRVRPPRLPRPRPRPPAKPRP | 0.603
67 | RRIRVRPPRLPRPRPRPPAWPRP | 0.498
68 | RRIRVRPPRLPRPRPRPPAYPRP | 0.0576
69 | RRIRVRPPRLPRPRPRPPCHPRP | -0.451
70 | RRIRVRPPRLPRPRPRPPERPRP | 0.257
71 | RRIRVRPPRLPRPRPRPPFFPRP | 0.193
72 | RRIRVRPPRLPRPRPRPPGCPRP | 0.232
73 | RRIRVRPPRLPRPRPRPPGLPRP | 0.373
74 | RRIRVRPPRLPRPRPRPPGMPRP | 0.172
75 | RRIRVRPPRLPRPRPRPPINPRP | 0.0484

Row | Sequence | shrunken log2 fold change
76 | RRIRVRPPRLPRPRPRPPKMPRP | -0.0776
77 | RRIRVRPPRLPRPRPRPPKNPRP | 0.192
78 | RRIRVRPPRLPRPRPRPPLEPRP | 0.431
79 | RRIRVRPPRLPRPRPRPPMFPRP | -0.161
80 | RRIRVRPPRLPRPRPRPPMNPRP | -0.205
81 | RRIRVRPPRLPRPRPRPPMTPRP | 0.209
82 | RRIRVRPPRLPRPRPRPPNMPRP | -0.316
83 | RRIRVRPPRLPRPRPRPPNPPRP | 0.379
84 | RRIRVRPPRLPRPRPRPPNVPRP | -0.0619
85 | RRIRVRPPRLPRPRPRPPQFPRP | 0.146
86 | RRIRVRPPRLPRPRPRPPSMPRP | -0.0312
87 | RRIRVRPPRLPRPRPRPPSSPRP | 0.275
88 | RRIRVRPPRLPRPRPRPPTRPRP | 0.508
89 | RRIRVRPPRLPRPRPRPPTYPRP | -0.432
90 | RRIRVRPPRLPRPRPRPPYMPRP | -0.592
91 | RRIRVRPPRLPRPRPRPPYPPRP | 0.0226
92 | RRIRVRPPRLPRPRPRPQARPRP | -0.109
93 | RRIRVRPPRLPRPRPRPQCDPRP | -0.0528
94 | RRIRVRPPRLPRPRPRPQCMPRP | -0.528
95 | RRIRVRPPRLPRPRPRPQDNPRP | -1.05
96 | RRIRVRPPRLPRPRPRPQEGPRP | -0.15
97 | RRIRVRPPRLPRPRPRPQEPPRP | 0.0426
98 | RRIRVRPPRLPRPRPRPQFRPRP | -1.21
99 | RRIRVRPPRLPRPRPRPQHEPRP | -0.245
100 | RRIRVRPPRLPRPRPRPQHHPRP | -0.182

Row | Sequence | shrunken log2 fold change
101 | RRIRVRPPRLPRPRPRPQIPPRP | -0.298
102 | RRIRVRPPRLPRPRPRPQIYPRP | -0.251
103 | RRIRVRPPRLPRPRPRPQLTPRP | -0.0141
104 | RRIRVRPPRLPRPRPRPQNGPRP | -0.356
105 | RRIRVRPPRLPRPRPRPQPCPRP | -0.0059
106 | RRIRVRPPRLPRPRPRPQPRPRP | 0.429
107 | RRIRVRPPRLPRPRPRPQQQPRP | 0.0503
108 | RRIRVRPPRLPRPRPRPQQYPRP | -0.258
109 | RRIRVRPPRLPRPRPRPQSNPRP | -0.394
110 | RRIRVRPPRLPRPRPRPQTLPRP | -0.372
111 | RRIRVRPPRLPRPRPRPQTSPRP | -0.0971
112 | RRIRVRPPRLPRPRPRPQYFPRP | -0.19
113 | RRIRVRPPRLPRPRPRPQYLPRP | -0.12
114 | RRIRVRPPRLPRPRPRPRAHPRP | 0.00164
115 | RRIRVRPPRLPRPRPRPRDFPRP | 0.0486
116 | RRIRVRPPRLPRPRPRPRENPRP | 0.473
117 | RRIRVRPPRLPRPRPRPRERPRP | 0.578
118 | RRIRVRPPRLPRPRPRPRGHPRP | 0.175
119 | RRIRVRPPRLPRPRPRPRHCPRP | -0.383
120 | RRIRVRPPRLPRPRPRPRHKPRP | 0.13
121 | RRIRVRPPRLPRPRPRPRIQPRP | -0.196
122 | RRIRVRPPRLPRPRPRPRIYPRP | -0.15
123 | RRIRVRPPRLPRPRPRPRKTPRP | 0.0951
124 | RRIRVRPPRLPRPRPRPRMCPRP | -0.35
125 | RRIRVRPPRLPRPRPRPRPIPRP | 0.611

Row | Sequence | shrunken log2 fold change
126 | RRIRVRPPRLPRPRPRPRPNPRP | 0.381
127 | RRIRVRPPRLPRPRPRPRQQPRP | 0.168
128 | RRIRVRPPRLPRPRPRPRQYPRP | 0.00898
129 | RRIRVRPPRLPRPRPRPRRWPRP | 0.334
130 | RRIRVRPPRLPRPRPRPRSDPRP | -0.258
131 | RRIRVRPPRLPRPRPRPRSIPRP | 3.22
132 | RRIRVRPPRLPRPRPRPRSRPRP | 0.227
133 | RRIRVRPPRLPRPRPRPRTTPRP | 0.378
134 | RRIRVRPPRLPRPRPRPRTWPRP | 0.0366
135 | RRIRVRPPRLPRPRPRPRVDPRP | 0.455
136 | RRIRVRPPRLPRPRPRPRWMPRP | -0.0415
137 | RRIRVRPPRLPRPRPRPRYLPRP | -0.184
138 | RRIRVRPPRLPRPRPRPSADPRP | -0.397
139 | RRIRVRPPRLPRPRPRPSAMPRP | 0.0604
140 | RRIRVRPPRLPRPRPRPSAPPRP | 0.358
141 | RRIRVRPPRLPRPRPRPSARPRP | 0.275
142 | RRIRVRPPRLPRPRPRPSAVPRP | -0.0662
143 | RRIRVRPPRLPRPRPRPSCAPRP | -0.16
144 | RRIRVRPPRLPRPRPRPSDMPRP | -0.519
145 | RRIRVRPPRLPRPRPRPSEAPRP | 0.0122
146 | RRIRVRPPRLPRPRPRPSEEPRP | 0.00143
147 | RRIRVRPPRLPRPRPRPSEFPRP | -0.233
148 | RRIRVRPPRLPRPRPRPSEIPRP | -0.623
149 | RRIRVRPPRLPRPRPRPSEQPRP | -0.0241
150 | RRIRVRPPRLPRPRPRPSFNPRP | -0.411
